This assay has as its target T1, Human argininosuccinate synthase (endogenous, in human tissues and human cancer cell lines) (human, UniProt P00966 1-412).
T1 construct: Endogenous protein in formalin-fixed, paraffin-embedded human tissue and cell line sections, with cytoplasmic staining; also called ASS; ASS1
T1 sequence: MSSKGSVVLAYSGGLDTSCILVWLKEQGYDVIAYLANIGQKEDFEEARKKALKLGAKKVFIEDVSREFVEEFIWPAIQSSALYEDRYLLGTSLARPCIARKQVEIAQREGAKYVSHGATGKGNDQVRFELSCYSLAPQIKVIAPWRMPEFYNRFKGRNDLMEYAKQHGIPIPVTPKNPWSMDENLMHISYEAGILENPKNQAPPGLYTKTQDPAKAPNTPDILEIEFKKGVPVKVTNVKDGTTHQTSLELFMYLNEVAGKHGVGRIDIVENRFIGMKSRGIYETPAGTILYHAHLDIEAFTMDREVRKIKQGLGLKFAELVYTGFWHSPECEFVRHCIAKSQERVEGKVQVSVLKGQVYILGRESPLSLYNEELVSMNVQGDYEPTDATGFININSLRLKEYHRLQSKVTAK
Put plainly: immunohistochemistry on formalin-fixed, paraffin-embedded clinical samples. As to the method:
Formalin-fixed, paraffin-embedded specimens were sectioned at 4-5 μm and mounted on positively charged slides. Slides were air dried and then placed in a 60° C. oven for 60 minutes. Slides were stained using the Leica Bond III instrument. Paraffin was removed from the slides using the standard Leica Bond dewax protocol. The tissue was antigen retrieved with either Bond ER1 for 5 or Bond ER2 for 20 minutes.
Mouse anti-argininosuccinate synthase monoclonal antibody was applied to the slide at a concentration of 0.625 μg/mL and incubated for 15 min or 0.4 μg/mL and incubated for 30 minutes. The Leica Bond Polymer Refine Detection kit was used to visualize the staining—post primary for 8 minutes and polymer for 8 minutes. The slides were then treated with Peroxide Block for five minutes followed by Mixed DAB Refine for ten minutes. Stained sections were counterstained with hematoxylin for […] The slides were then dehydrated and cover-slipped.

B1: Mouse anti-argininosuccinate synthase monoclonal antibody used for immunohistochemistry in Example 2 (antibody, V domains shown)
VH: QIQLVQSGPELKKPGETVKISCKTSGYTFTDYSIHWVKQAPGKGLTWMGWINTETGEPTYADDFKGRFALSLETSASTAYLQLKNLRNEDTATYFCGSSYSYWGQGTLVTVSS
VL: DVVMTQTPLSLPVSLGDQASISCRSSQSLENSNGKTYLNWFLQKPGQSPQLLIYRVSNRFSGVPDRFSGSGSGTEFTLKISRVEAEDLGVYFCLQVKHVPWTFGGGTKLEIK
On to B1, for which the binding result is “binds”.

For the origin of these results see patent US20160009821A1 (TDW GROUP, published 2016).
